The values below come from the supplement of paper PMC9112550, “Optimization of the antimicrobial peptide Bac7 by deep mutational scanning” (BMC Biology, 2022).
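Also: peptides expressed intracellularly from a pBAD plasmid library in pooled LB shake-flask culture, induced with 0.3% L-arabinose, DNA abundance read by NGS, three biological replicates, DESeq2 with apeglm shrinkage.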

This series concerns Escherichia coli TOP10. Briefly: shrunken log2 fold change of peptide-encoding DNA abundance (4.5 h post-induction vs induction); higher = less antimicrobial activity (less host growth inhibition). Particulars: time post-induction: 4.5 h; library: site-saturation at positions 5, 18, 19, 20.
As to RRIRIRPPRLPRPRPRPMPNPRP, the “shrunken log2 fold change” value was -0.0781.

Turning to RRIRIRPPRLPRPRPRPIIKPRP, the “shrunken log2 fold change” value is -0.666.

RRIRYRPPRLPRPRPRPMACPRP: the “shrunken log2 fold change” value was -0.000921.

As to RRIRVRPPRLPRPRPRPEIQPRP, the “shrunken log2 fold change” value was 0.349.

Regarding RRIRYRPPRLPRPRPRPKCPPRP, the “shrunken log2 fold change” value came out at 0.137.

As for RRIRARPPRLPRPRPRPMVMPRP, the “shrunken log2 fold change” value is -0.00579.

RRIRIRPPRLPRPRPRPRYFPRP: the “shrunken log2 fold change” value was -0.769.

As for RRIRKRPPRLPRPRPRPEDDPRP, the “shrunken log2 fold change” value is 0.00862.

As for RRIRRRPPRLPRPRPRPYYIPRP, the “shrunken log2 fold change” value is -0.584.

With RRIRTRPPRLPRPRPRPHWQPRP, the “shrunken log2 fold change” value is -0.0496.

For RRIRSRPPRLPRPRPRPKKTPRP, the “shrunken log2 fold change” value is -0.356.

In the case of RRIRCRPPRLPRPRPRPYDFPRP, the “shrunken log2 fold change” value was -0.894.

With RRIRRRPPRLPRPRPRPYYHPRP, the “shrunken log2 fold change” value was -0.645.

RRIRSRPPRLPRPRPRPGPTPRP: the “shrunken log2 fold change” value is 0.788.

In the case of RRIRCRPPRLPRPRPRPCLPPRP, the “shrunken log2 fold change” value is -0.439.

On to RRIRLRPPRLPRPRPRPVYTPRP, for which the “shrunken log2 fold change” value is -0.0286.

On to RRIRSRPPRLPRPRPRPNTHPRP, for which the “shrunken log2 fold change” value is -0.413.

With RRIRVRPPRLPRPRPRPFDQPRP, the “shrunken log2 fold change” value was -0.365.

With RRIRDRPPRLPRPRPRPHCDPRP, the “shrunken log2 fold change” value is -0.0666.

For the sequence RRIRQRPPRLPRPRPRPHNPPRP, the “shrunken log2 fold change” value was -0.33.

RRIRYRPPRLPRPRPRPQRIPRP: the “shrunken log2 fold change” value is -0.0956.

RRIRVRPPRLPRPRPRPPEKPRP: the “shrunken log2 fold change” value came out at 0.0629.

Consider RRIRIRPPRLPRPRPRPDFMPRP, for which the “shrunken log2 fold change” value is -0.661.

With RRIRQRPPRLPRPRPRPSDKPRP, the “shrunken log2 fold change” value was -0.341.

Turning to RRIRSRPPRLPRPRPRPDFRPRP, the “shrunken log2 fold change” value was -0.0983.

RRIRDRPPRLPRPRPRPGFDPRP: the “shrunken log2 fold change” value is 0.926.

Consider RRIRIRPPRLPRPRPRPMISPRP, for which the “shrunken log2 fold change” value is -0.00209.

For the sequence RRIRTRPPRLPRPRPRPCEIPRP, the “shrunken log2 fold change” value came to 0.0393.

For the sequence RRIRMRPPRLPRPRPRPIYWPRP, the “shrunken log2 fold change” value was -0.0918.

As for RRIRYRPPRLPRPRPRPKFDPRP, the “shrunken log2 fold change” value is -0.138.

In the case of RRIRSRPPRLPRPRPRPRWCPRP, the “shrunken log2 fold change” value came out at 0.051.

For RRIRPRPPRLPRPRPRPYARPRP, the “shrunken log2 fold change” value is -0.0595.

For the sequence RRIRSRPPRLPRPRPRPIKYPRP, the “shrunken log2 fold change” value was -0.654.

For the sequence RRIRDRPPRLPRPRPRPFCTPRP, the “shrunken log2 fold change” value is -0.0992.

With RRIRNRPPRLPRPRPRPPAVPRP, the “shrunken log2 fold change” value came out at 0.387.

As to RRIRCRPPRLPRPRPRPLDVPRP, the “shrunken log2 fold change” value is -0.41.

RRIRDRPPRLPRPRPRPHYSPRP: the “shrunken log2 fold change” value is -0.16.

With RRIRQRPPRLPRPRPRPIPDPRP, the “shrunken log2 fold change” value was -0.07.

As to RRIRTRPPRLPRPRPRPSNVPRP, the “shrunken log2 fold change” value was -0.337.

With RRIRWRPPRLPRPRPRPRPHPRP, the “shrunken log2 fold change” value was 0.408.

In the case of RRIRQRPPRLPRPRPRPELFPRP, the “shrunken log2 fold change” value was -0.0927.

For RRIRWRPPRLPRPRPRPRTPPRP, the “shrunken log2 fold change” value was 0.559.

Consider RRIRWRPPRLPRPRPRPIQRPRP, for which the “shrunken log2 fold change” value stood at 0.0678.

For the sequence RRIRARPPRLPRPRPRPFWRPRP, the “shrunken log2 fold change” value turned out to be 0.36.

Turning to RRIRKRPPRLPRPRPRPGIRPRP, the “shrunken log2 fold change” value was determined as 0.267.

Take RRIRNRPPRLPRPRPRPKWYPRP: the “shrunken log2 fold change” value was -0.517.

Take RRIRTRPPRLPRPRPRPNRQPRP: the “shrunken log2 fold change” value was 0.0749.

In the case of RRIRNRPPRLPRPRPRPFGSPRP, the “shrunken log2 fold change” value was -0.0105.

Consider RRIRHRPPRLPRPRPRPFNQPRP, for which the “shrunken log2 fold change” value is -0.0213.

In the case of RRIRSRPPRLPRPRPRPTFLPRP, the “shrunken log2 fold change” value is -0.0423.

On to RRIRDRPPRLPRPRPRPPCDPRP, for which the “shrunken log2 fold change” value was -0.0123.

Consider RRIRPRPPRLPRPRPRPNPWPRP, for which the “shrunken log2 fold change” value turned out to be 0.277.

On to RRIRNRPPRLPRPRPRPKLSPRP, for which the “shrunken log2 fold change” value was 0.0328.

On to RRIRPRPPRLPRPRPRPMVEPRP, for which the “shrunken log2 fold change” value was -0.112.

With RRIRCRPPRLPRPRPRPSDYPRP, the “shrunken log2 fold change” value is -1.15.

For RRIRKRPPRLPRPRPRPHLTPRP, the “shrunken log2 fold change” value was determined as 0.055.

For RRIRARPPRLPRPRPRPQKGPRP, the “shrunken log2 fold change” value was 0.0244.

For RRIRYRPPRLPRPRPRPDVLPRP, the “shrunken log2 fold change” value was found to be 0.0494.

In the case of RRIRQRPPRLPRPRPRPMWLPRP, the “shrunken log2 fold change” value is -0.22.

As to RRIRLRPPRLPRPRPRPMSVPRP, the “shrunken log2 fold change” value is -0.18.

In the case of RRIRRRPPRLPRPRPRPMPSPRP, the “shrunken log2 fold change” value came out at 0.136.

As for RRIRWRPPRLPRPRPRPDSIPRP, the “shrunken log2 fold change” value is -0.243.

For RRIRDRPPRLPRPRPRPQEMPRP, the “shrunken log2 fold change” value is -0.01.

Take RRIRFRPPRLPRPRPRPNAFPRP: the “shrunken log2 fold change” value came to 0.00827.

Take RRIRYRPPRLPRPRPRPPLTPRP: the “shrunken log2 fold change” value was -0.403.

Take RRIRERPPRLPRPRPRPECVPRP: the “shrunken log2 fold change” value turned out to be 0.162.

Turning to RRIRERPPRLPRPRPRPWPAPRP, the “shrunken log2 fold change” value turned out to be 0.238.

For the sequence RRIRFRPPRLPRPRPRPDLFPRP, the “shrunken log2 fold change” value was found to be 0.0316.

With RRIRPRPPRLPRPRPRPCHMPRP, the “shrunken log2 fold change” value is -0.0442.

With RRIRVRPPRLPRPRPRPYQYPRP, the “shrunken log2 fold change” value was -0.0296.

Turning to RRIRSRPPRLPRPRPRPHMFPRP, the “shrunken log2 fold change” value is -0.428.

On to RRIRYRPPRLPRPRPRPCTNPRP, for which the “shrunken log2 fold change” value was 0.0527.

On to RRIRIRPPRLPRPRPRPERVPRP, for which the “shrunken log2 fold change” value was found to be 0.089.

For RRIRCRPPRLPRPRPRPYTSPRP, the “shrunken log2 fold change” value is -0.526.

Regarding RRIRFRPPRLPRPRPRPTKGPRP, the “shrunken log2 fold change” value was -0.0144.

With RRIRQRPPRLPRPRPRPIMEPRP, the “shrunken log2 fold change” value is -0.0496.

Take RRIRNRPPRLPRPRPRPNHGPRP: the “shrunken log2 fold change” value was -0.0113.

On to RRIRCRPPRLPRPRPRPKNMPRP, for which the “shrunken log2 fold change” value was -0.727.

Regarding RRIRARPPRLPRPRPRPNVSPRP, the “shrunken log2 fold change” value was -0.11.

On to RRIRYRPPRLPRPRPRPSRWPRP, for which the “shrunken log2 fold change” value was found to be 0.0398.

With RRIRKRPPRLPRPRPRPEFYPRP, the “shrunken log2 fold change” value was -0.0131.

Take RRIRFRPPRLPRPRPRPFLNPRP: the “shrunken log2 fold change” value was -0.484.

RRIRYRPPRLPRPRPRPWNWPRP: the “shrunken log2 fold change” value was -0.252.

Regarding RRIRNRPPRLPRPRPRPNKSPRP, the “shrunken log2 fold change” value was -0.338.

Consider RRIRPRPPRLPRPRPRPTANPRP, for which the “shrunken log2 fold change” value is 0.297.

RRIRCRPPRLPRPRPRPGYSPRP: the “shrunken log2 fold change” value is -0.483.

In the case of RRIRARPPRLPRPRPRPIWEPRP, the “shrunken log2 fold change” value was 0.473.

In the case of RRIRWRPPRLPRPRPRPQKPPRP, the “shrunken log2 fold change” value stood at 0.0546.

With RRIRGRPPRLPRPRPRPCFDPRP, the “shrunken log2 fold change” value turned out to be 0.299.

Regarding RRIRERPPRLPRPRPRPKLLPRP, the “shrunken log2 fold change” value amounted to 0.0473.

Regarding RRIRHRPPRLPRPRPRPPIQPRP, the “shrunken log2 fold change” value stood at 0.0855.

Consider RRIRQRPPRLPRPRPRPMRSPRP, for which the “shrunken log2 fold change” value came out at 0.196.

Regarding RRIRHRPPRLPRPRPRPLGTPRP, the “shrunken log2 fold change” value is -0.129.

For the sequence RRIRIRPPRLPRPRPRPIRYPRP, the “shrunken log2 fold change” value is -0.125.

Regarding RRIRGRPPRLPRPRPRPPSEPRP, the “shrunken log2 fold change” value is 0.856.

As for RRIRHRPPRLPRPRPRPTYWPRP, the “shrunken log2 fold change” value was 0.293.

Regarding RRIRTRPPRLPRPRPRPECFPRP, the “shrunken log2 fold change” value worked out at 0.146.

For the sequence RRIRDRPPRLPRPRPRPYTVPRP, the “shrunken log2 fold change” value is -0.00865.

As to RRIRWRPPRLPRPRPRPISKPRP, the “shrunken log2 fold change” value is -0.215.

Take RRIRRRPPRLPRPRPRPGCTPRP: the “shrunken log2 fold change” value was determined as 0.183.

On to RRIRCRPPRLPRPRPRPRLMPRP, for which the “shrunken log2 fold change” value turned out to be 0.174.

For RRIRARPPRLPRPRPRPMMAPRP, the “shrunken log2 fold change” value was found to be 0.466.

As for RRIRIRPPRLPRPRPRPCGLPRP, the “shrunken log2 fold change” value is -0.0428.

For the sequence RRIRERPPRLPRPRPRPLSRPRP, the “shrunken log2 fold change” value was 0.00391.

Consider RRIRTRPPRLPRPRPRPVFIPRP, for which the “shrunken log2 fold change” value was -0.475.

As for RRIRDRPPRLPRPRPRPPCKPRP, the “shrunken log2 fold change” value was -0.129.

Take RRIRTRPPRLPRPRPRPVCIPRP: the “shrunken log2 fold change” value was -0.195.

As to RRIRDRPPRLPRPRPRPCLGPRP, the “shrunken log2 fold change” value was -0.015.

Take RRIRRRPPRLPRPRPRPFTQPRP: the “shrunken log2 fold change” value was -0.223.

Consider RRIRYRPPRLPRPRPRPVQPPRP, for which the “shrunken log2 fold change” value came to 0.219.

Take RRIRTRPPRLPRPRPRPHDSPRP: the “shrunken log2 fold change” value was -0.229.

For the sequence RRIRTRPPRLPRPRPRPHLDPRP, the “shrunken log2 fold change” value is -0.175.

In the case of RRIRTRPPRLPRPRPRPMTNPRP, the “shrunken log2 fold change” value was -0.138.

With RRIRERPPRLPRPRPRPCLMPRP, the “shrunken log2 fold change” value is -0.0535.

With RRIRQRPPRLPRPRPRPWFGPRP, the “shrunken log2 fold change” value is -0.352.

Turning to RRIRQRPPRLPRPRPRPKNNPRP, the “shrunken log2 fold change” value is -0.616.

As to RRIRNRPPRLPRPRPRPEKFPRP, the “shrunken log2 fold change” value is -0.165.

RRIRYRPPRLPRPRPRPPAFPRP: the “shrunken log2 fold change” value is -0.242.

In the case of RRIRSRPPRLPRPRPRPNMWPRP, the “shrunken log2 fold change” value is -0.311.

For RRIRTRPPRLPRPRPRPGAQPRP, the “shrunken log2 fold change” value stood at 0.283.

As for RRIRNRPPRLPRPRPRPTRPPRP, the “shrunken log2 fold change” value worked out at 0.663.

For the sequence RRIRYRPPRLPRPRPRPKTYPRP, the “shrunken log2 fold change” value was -0.781.

With RRIRARPPRLPRPRPRPMNSPRP, the “shrunken log2 fold change” value was -0.279.

Regarding RRIRGRPPRLPRPRPRPWCPPRP, the “shrunken log2 fold change” value is 0.236.

On to RRIRIRPPRLPRPRPRPPWAPRP, for which the “shrunken log2 fold change” value stood at 0.388.
